From US20240100180A1

What was measured:
[1] = target: CLDN18.2 of healthy mouse stomach (mouse) (UniProt P56857); assay: flow cytometry, live cells of healthy mouse stomach, mouse 2, antibody 4 µg/ml
[2] = target: CLDN18.2 of healthy mouse stomach (mouse) (UniProt P56857); assay: flow cytometry, live cells of healthy mouse stomach, mouse 1, antibody 4 µg/ml
[3] = target: CLDN18.2 of healthy mouse stomach (mouse) (UniProt P56857); assay: flow cytometry, live cells of healthy mouse stomach, average of two mice

B1: cCl1-1 (antibody, V domains shown)
VH: QIQLVQSGPELKKPGESVKISCKASGYTFTDYAMHWVKQAPGKGLKWMGWINTYTGKPTYADDFKGRFVFSLEASASTANLQISNLKNEDTATYFCARAVFYGYTMDAWGQGTSVTVSS
VL: DIQMTQSPASLSASLGETISIACRASEDIYSNLAWYQQKSGKSPQLLIFSVKRLQDGVPSRFSGSGSGTQYSLKISGMQPEDEGDYFCLQGSNFPLTFGSGTKLEIK
% of positive healthy stomach cells [1]: 0.3% | % of positive healthy stomach cells [2]: 0.4% | % of positive healthy stomach cells [3]: 0.35%
